We go through 33 molecules from patent US20040018558A1 (published 2004).

Where no end group is shown, it is not given here.

For experiment [1], the target named is recombinant reconstituted β2 adrenergic receptor. Put plainly: ELISA of clones panned from the Gs library, reconstituted β2 adrenergic receptor.
The target of experiment [2] is T1, light-activated rhodopsin (bovine rod outer segment membranes) (bovine, UniProt P02699 1-348, retinylidene chromophore bound to Lys-296).
T1 construct: whole, on cells; native receptor in membrane fragments immobilised on wells, not intact cells; also called metarhodopsin II; MII
T1 sequence (P02699 whole entry, the tested form may be a part): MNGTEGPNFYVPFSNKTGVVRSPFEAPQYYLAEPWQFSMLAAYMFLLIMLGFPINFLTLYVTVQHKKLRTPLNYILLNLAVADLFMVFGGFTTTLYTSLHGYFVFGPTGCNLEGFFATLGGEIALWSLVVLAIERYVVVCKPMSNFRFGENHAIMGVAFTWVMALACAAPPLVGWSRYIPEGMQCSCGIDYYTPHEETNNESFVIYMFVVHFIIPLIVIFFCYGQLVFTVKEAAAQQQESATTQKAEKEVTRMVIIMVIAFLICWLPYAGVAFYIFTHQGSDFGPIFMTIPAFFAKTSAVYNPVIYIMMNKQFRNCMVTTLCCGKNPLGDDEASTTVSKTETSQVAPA
Put plainly: LacI display panning, light-activated ROS membranes. How it is done: For screening of the library by “panning,” rhodopsin receptors prepared according to Example 5 were immobilized directly on Immulon 4 (Dynatech) microtiter wells (0.1-1 μg of protein per well) in cold 35 mM HEPES, pH 7.5, containing 0.1 mM EDTA, 50 mM KCl and 1 mM dithiothreitol (HEK/DTT). After shaking for one hour at 4° C., unbound membrane fragments were washed away with HEK/DTT. The wells were blocked with 100 μl 2% BSA in HEKL (35 mM HEPES; 0.1 mM EDTA; 50 mM KCl; 0.2 M α-lactose; pH 7.5, with 1 mM DTT). For rounds 1 and 2, BSA was used for blocking; in later rounds 1% nonfat dry milk was used. For the first round of panning, about 24 wells of a 96-well plate were used. In subsequent rounds, 8 wells with receptor and 8 wells without receptor were prepared.
The Gt library was thawed (2 mL aliquot) and mixed with 6 mL lysis buffer on ice. Lysis buffer contains 4.25 mL HE (25 mM HEPES: 0.1 mM EDTA; pH 7.5); 1 mL 50% glycerol; 750 μL 10 mg/mL protease-free BSA in HE; 10 μL 0.5 M DTT; and 6.25 μL 0.2 M PMSF. Freshly prepared lysozyme solution (150 μL 10 mg/mL lysozyme in cold HE) was added and the tube was gently inverted several times and incubated on ice for no more than two minutes. The extent of lysis is evidenced by an increase in viscosity that can be observed by noting the slow migration of bubbles to the top of the tube after mixing. Lysis was terminated by mixing in 2 mL 20% lactose and 250 μL 2M KCl. The tube was centrifuged immediately at 13,000×g for 15 minutes at 4° C. and the supernatant transferred to a new tube. A small aliquot of 0.1% (the PRE sample) was saved in a separate, labeled tube. […] Immediately thereafter, the crude bacterial lysate from the peptide library (200 μL) was added to each well and allowed to shake gently for one hour at 4° C. For round 2, this same procedure was followed. In round 3, the amount of lysate used was reduced to 100 μL. In subsequent rounds, the lysate was diluted 1:10 in HEKL/BSA.

B1: BAR3 QWMDLRQHELL (peptide, not shown: small tags and cut ends)
chain: QWMDLRQHELL
modifications: not fully specified
B1: the ELISA in experiment [1] was 0.185.

B2: BAR20 NCMKFRSCGLF (peptide, not shown: small tags and cut ends)
chain: NCMKFRSCGLF
modifications: not fully specified; cysteine pairing not given here
In the case of B2, in experiment [1], the ELISA is 0.079.

B3: Clone No. 11 (Table IX) IHASLRDCGLF (peptide, not shown: small tags and cut ends)
chain: IHASLRDCGLF
modifications: also: fused to LacI carrier via linker, letters not given here
Regarding B3, the binding result in experiment [2] is recorded as “binds”.

B4: AG20 RWLHWQYRGRG (peptide, not shown: small tags and cut ends)
chain: RWLHWQYRGRG
modifications: not fully specified
As to B4, in experiment [1], the ELISA stood at 0.431.

B5: AG18 QRMNLGPCGLL (peptide, not shown: small tags and cut ends)
chain: QRMNLGPCGLL
modifications: not fully specified
B5: the ELISA in experiment [1] amounted to 0.155.

B6: Clone No. 6 (Table IX) LRESLKQCGLF (peptide, not shown: small tags and cut ends)
chain: LRESLKQCGLF
modifications: also: fused to LacI carrier via linker, letters not given here
In the case of B6, in experiment [2], the binding result is reported as “binds”.

B7: Clone No. 17 (Table IX) MRESLKDCGLF (peptide, not shown: small tags and cut ends)
chain: MRESLKDCGLF
modifications: also: fused to LacI carrier via linker, letters not given here
In the case of B7, the binding result in experiment [2] is given as “binds”.

B8: Clone No. 23 (Table IX) VLEDLKSCGLF (peptide, not shown: small tags and cut ends)
chain: VLEDLKSCGLF
modifications: also: fused to LacI carrier via linker, letters not given here
As for B8, the binding result in experiment [2] is “binds”.

B9: BAR40 PCIQLGQYESF (peptide, not shown: small tags and cut ends)
chain: PCIQLGQYESF
modifications: not fully specified
As to B9, the ELISA in experiment [1] came out at 0.028.

B10: AG4 QRLRLGPDELF (peptide, not shown: small tags and cut ends)
chain: QRLRLGPDELF
modifications: not fully specified
Take B10: the ELISA in experiment [1] stood at 0.291.

B11: Clone No. 27 (Table IX) MCESLKECGLF (peptide, not shown: small tags and cut ends)
chain: MCESLKECGLF
modifications: cysteine pairing not given here; also: fused to LacI carrier via linker, letters not given here
As for B11, the binding result in experiment [2] is “binds”.

B12: AG19 PRPRLLRFKIP (peptide, not shown: small tags and cut ends)
chain: PRPRLLRFKIP
modifications: also: fused to carrier via linker, not given here
For the molecule B12, the ELISA in experiment [1] was 0.361.

B13: Clone No. 19 (Table IX) IRETLKDCGLL (peptide, not shown: small tags and cut ends)
chain: IRETLKDCGLL
modifications: also: fused to LacI carrier via linker, letters not given here
In the case of B13, the binding result in experiment [2] is given as “binds”.

B14: Clone No. 24 (Table IX) MLKNLKDCGMF (peptide, not shown: small tags and cut ends)
chain: MLKNLKDCGMF
modifications: also: fused to LacI carrier via linker, letters not given here
As for B14, the binding result in experiment [2] is reported as “binds”.

B15: AG11 DRMHLWRFGLL (peptide, not shown: small tags and cut ends)
chain: DRMHLWRFGLL
modifications: not fully specified
As to B15, in experiment [1], the ELISA was 0.192.

B16: Clone No. 9 (Table IX) IQGVLKDCGLL (peptide, not shown: small tags and cut ends)
chain: IQGVLKDCGLL
modifications: also: fused to LacI carrier via linker, letters not given here
For the molecule B16, the binding result in experiment [2] is on record as “binds”.

B17: Clone No. 3 (Table IX) LLDNIKDCGLF (peptide, not shown: small tags and cut ends)
chain: LLDNIKDCGLF
modifications: also: fused to LacI carrier via linker, letters not given here
As to B17, the binding result in experiment [2] is reported as “binds”.

B18: Clone No. 10 (Table IX) ICENLKECGLF (peptide, not shown: small tags and cut ends)
chain: ICENLKECGLF
modifications: cysteine pairing not given here; also: fused to LacI carrier via linker, letters not given here
With B18, the binding result in experiment [2] was “binds”.

B19: Clone No. 16 (Table IX) IIDNLKDCGLF (peptide, not shown: small tags and cut ends)
chain: IIDNLKDCGLF
modifications: also: fused to LacI carrier via linker, letters not given here
In the case of B19, the binding result in experiment [2] is “binds”.

B20: BAR1 QRIHRRPFKFF (peptide, not shown: small tags and cut ends)
chain: QRIHRRPFKFF
modifications: not fully specified
As for B20, the ELISA in experiment [1] is 0.218.

B21: AG3 QRMPLRLFEFL (peptide, not shown: small tags and cut ends)
chain: QRMPLRLFEFL
modifications: not fully specified
On to B21, for which the ELISA in experiment [1] was determined as 0.217.

B22: Clone No. 4 (Table IX) ILTKLTDCGLF (peptide, not shown: small tags and cut ends)
chain: ILTKLTDCGLF
modifications: also: fused to LacI carrier via linker, letters not given here
As to B22, in experiment [2], the binding result was “binds”.

B23: BAR8 ERLHRRLFQLH (peptide, not shown: small tags and cut ends)
chain: ERLHRRLFQLH
modifications: not fully specified
B23: in experiment [1], the ELISA was determined as 0.047.

B24: AG13 QRLHLRGYEFL (peptide, not shown: small tags and cut ends)
chain: QRLHLRGYEFL
modifications: not fully specified
In the case of B24, in experiment [1], the ELISA worked out at 0.054.

B25: Clone No. 26 (Table IX) ILADVIDCGLF (peptide, not shown: small tags and cut ends)
chain: ILADVIDCGLF
modifications: also: fused to LacI carrier via linker, letters not given here
As to B25, the binding result in experiment [2] was “binds”.

B26: BAR31 QRLRLRKYRLF (peptide, not shown: small tags and cut ends)
chain: QRLRLRKYRLF
modifications: not fully specified
In the case of B26, the ELISA in experiment [1] was 0.026.

B27: BAR2 QRVHLRQDELL (peptide, not shown: small tags and cut ends)
chain: QRVHLRQDELL
modifications: not fully specified
Take B27: the ELISA in experiment [1] turned out to be 0.197.

B28: Clone No. 15/28 (Table IX) IRENLEDCGLF (peptide, not shown: small tags and cut ends)
chain: IRENLEDCGLF
modifications: also: fused to LacI carrier via linker, letters not given here
Consider B28, for which, in experiment [2], the binding result is recorded as “binds”.

B29: AG9 QRMPLRQYELL (peptide, not shown: small tags and cut ends)
chain: QRMPLRQYELL
modifications: not fully specified
As for B29, the ELISA in experiment [1] worked out at 0.19.

B30: AG2 QGEHLRQLQLQ (peptide, not shown: small tags and cut ends)
chain: QGEHLRQLQLQ
modifications: not fully specified
Take B30: the ELISA in experiment [1] was determined as 0.33.

B31: Clone No. 14 (Table IX) IFLNLKDCGLF (peptide, not shown: small tags and cut ends)
chain: IFLNLKDCGLF
modifications: also: fused to LacI carrier via linker, letters not given here
As to B31, the binding result in experiment [2] was “binds”.

B32: AG1 QGMQLRRFKLR (peptide, not shown: small tags and cut ends)
chain: QGMQLRRFKLR
modifications: not fully specified
Take B32: the ELISA in experiment [1] came to 0.435.

B33: Clone No. 18 (Table IX) MLENLKDCGLF (peptide, not shown: small tags and cut ends)
chain: MLENLKDCGLF
modifications: also: fused to LacI carrier via linker, letters not given here
As for B33, the binding result in experiment [2] is “binds”.
